Results taken from US20160024487.

How the values were obtained:
[1] = biological target: T1, Lys(Dnp)-ATNATMQPRIVGG-Lys(Abz)
T1 chain: KATNATMQPRIVGGK

[2] = biological target: T2, Lys(Dnp)-ATNATVYPRIVGG-Lys(Abz)
T2 chain: KATNATVYPRIVGGK

[3] = biological target: T3, Lys(Dnp)-ATNATVTPRIVGG-Lys(Abz)
T3 chain: KATNATVTPRIVGGK

[4] = biological target: T4, Lys(Dnp)-ATNATFVPRIVGG-Lys(Abz)
T4 chain: KATNATFVPRIVGGK

[5] = biological target: T5, Lys(Dnp)-ATNATVHPRIVGG-Lys(Abz)
T5 chain: KATNATVHPRIVGGK

[6] = biological target: T6, Lys(Dnp)-ATNATWTPRIVGG-Lys(Abz)
T6 chain: KATNATWTPRIVGGK

[7] = biological target: T7, Lys(Dnp)-ATNATIRPRIVGG-Lys(Abz)
T7 chain: KATNATIRPRIVGGK

[8] = biological target: T8, Lys(Dnp)-ATNATAGPRIVGG-Lys(Abz)
T8 chain: KATNATAGPRIVGGK

[9] = biological target: T9, Lys(Dnp)-ATNATWHPRIVGG-Lys(Abz)
T9 chain: KATNATWHPRIVGGK

[10] = biological target: T10, Lys(Dnp)-ATNATLWPRIVGG-Lys(Abz)
T10 chain: KATNATLWPRIVGGK

[11] = biological target: T11, Lys(Dnp)-ATNATLSPRIVGG-Lys(Abz)
T11 chain: KATNATLSPRIVGGK

[12] = biological target: T12, Lys(Dnp)-ATNATWPPRIVGG-Lys(Abz)
T12 chain: KATNATWPPRIVGGK

[13] = biological target: T13, Lys(Dnp)-ATNATFMPRIVGG-Lys(Abz)
T13 chain: KATNATFMPRIVGGK

[14] = biological target: T14, Lys(Dnp)-ATNATQAPRIVGG-Lys(Abz)
T14 chain: KATNATQAPRIVGGK

[15] = biological target: T15, Lys(Dnp)-ATNATMDPRIVGG-Lys(Abz)
T15 chain: KATNATMDPRIVGGK

[16] = biological target: T16, Lys(Dnp)-ATNATVAPRIVGG-Lys(Abz)
T16 chain: KATNATVAPRIVGGK

[17] = biological target: T17, Lys(Dnp)-ATNATAQPRIVGG-Lys(Abz)
T17 chain: KATNATAQPRIVGGK

[18] = biological target: T18, Lys(Dnp)-ATNATKYPRIVGG-Lys(Abz)
T18 chain: KATNATKYPRIVGGK

[19] = biological target: T19, Lys(Dnp)-ATNATSKPRIVGG-Lys(Abz)
T19 chain: KATNATSKPRIVGGK

[20] = biological target: T20, Lys(Dnp)-ATNATEVPRIVGG-Lys(Abz)
T20 chain: KATNATEVPRIVGGK

[21] = biological target: T21, Lys(Dnp)-ATNATIGPRIVGG-Lys(Abz)
T21 chain: KATNATIGPRIVGGK

[22] = biological target: T22, Lys(Dnp)-ATNATPSPRIVGG-Lys(Abz)
T22 chain: KATNATPSPRIVGGK

[23] = biological target: T23, Lys(Dnp)-ATNATEQPRIVGG-Lys(Abz)
T23 chain: KATNATEQPRIVGGK

[24] = biological target: T24, Lys(Dnp)-ATNATQFPRIVGG-Lys(Abz)
T24 chain: KATNATQFPRIVGGK

[25] = biological target: T25, Lys(Dnp)-ATNATFEPRIVGG-Lys(Abz)
T25 chain: KATNATFEPRIVGGK

[26] = biological target: T26, Lys(Dnp)-ATNATMWPRIVGG-Lys(Abz)
T26 chain: KATNATMWPRIVGGK

[27] = biological target: T27, Lys(Dnp)-ATNATPMPRIVGG-Lys(Abz)
T27 chain: KATNATPMPRIVGGK

[28] = biological target: T28, Lys(Dnp)-ATNATLLPRIVGG-Lys(Abz)
T28 chain: KATNATLLPRIVGGK

[29] = biological target: T29, Lys(Dnp)-ATNATISPRIVGG-Lys(Abz)
T29 chain: KATNATISPRIVGGK

[30] = biological target: T30, Lys(Dnp)-ATNATYGPRIVGG-Lys(Abz)
T30 chain: KATNATYGPRIVGGK

[31] = biological target: T31, Lys(Dnp)-ATNATWFPRIVGG-Lys(Abz)
T31 chain: KATNATWFPRIVGGK

[32] = biological target: T32, Lys(Dnp)-ATNATRRPRIVGG-Lys(Abz)
T32 chain: KATNATRRPRIVGGK

[33] = biological target: T33, Lys(Dnp)-ATNATHLPRIVGG-Lys(Abz)
T33 chain: KATNATHLPRIVGGK

[34] = biological target: T34, Lys(Dnp)-ATNATWVPRIVGG-Lys(Abz)
T34 chain: KATNATWVPRIVGGK

[35] = biological target: T35, Lys(Dnp)-ATNATHHPRIVGG-Lys(Abz)
T35 chain: KATNATHHPRIVGGK

[36] = biological target: T36, Lys(Dnp)-ATNATLEPRIVGG-Lys(Abz)
T36 chain: KATNATLEPRIVGGK

[37] = biological target: T37, Lys(Dnp)-ATNATQNPRIVGG-Lys(Abz)
T37 chain: KATNATQNPRIVGGK

[38] = biological target: T38, Lys(Dnp)-ATNATASPRIVGG-Lys(Abz)
T38 chain: KATNATASPRIVGGK

[39] = biological target: T39, Lys(Dnp)-ATNATKKPRIVGG-Lys(Abz)
T39 chain: KATNATKKPRIVGGK

[40] = biological target: T40, Lys(Dnp)-ATNATKHPRIVGG-Lys(Abz)
T40 chain: KATNATKHPRIVGGK

[41] = biological target: T41, Lys(Dnp)-ATNATQRPRIVGG-Lys(Abz)
T41 chain: KATNATQRPRIVGGK

B1: Human plasma purified Factor Xa (protein)
chain 1: ANSFLEEMKKGHLERECMEETCSYEEAREVFEDSDKTNEFWNKYKDGDQCETSPCQNQGKCKDGLGEYTCTCLEGFEGKNCELFTRKLCSLDNGDCDQFCHEEQNSVVCSCARGYTLADNGKACIPTGPYPCGKQTLER
chain 2: IVGGQECKDGECPWQALLINEENEGFCGGTILSEFYILTAAHCLYQAKRFKVRVGDRNTEQEEGGEAVHEVEVVIKHNRFTKETYDFDIAVLRLKTPITFRMNVAPACLPERDWAESTLMTQKTGIVSGFGRTHEKGRQSTRLKMLEVPYVDRNSCKLSSSFIITQNMFCAGYDTKQEDACQGDSGGPHVTRFKDTYFVTGIVSWGEGCARKGKYGIYTKVTAFLKWIDRSMKTRGLPKAKSHAPEVITSSPLK
What does the source list for B1?
FXa kcat/KM [1]: 950 M⁻¹ s⁻¹; FXa kcat/KM [2]: 61 M⁻¹ s⁻¹; FXa kcat/KM [3]: 68 M⁻¹ s⁻¹; FXa kcat/KM [4]: 71 M⁻¹ s⁻¹; FXa kcat/KM [5]: 67 M⁻¹ s⁻¹; FXa kcat/KM [6]: 46 M⁻¹ s⁻¹; FXa kcat/KM [7]: 760 M⁻¹ s⁻¹; FXa kcat/KM [8]: 14 M⁻¹ s⁻¹; FXa kcat/KM [9]: 42 M⁻¹ s⁻¹; FXa kcat/KM [10]: 1000 M⁻¹ s⁻¹; FXa kcat/KM [11]: 690 M⁻¹ s⁻¹; FXa kcat/KM [12]: 17 M⁻¹ s⁻¹; FXa kcat/KM [13]: 840 M⁻¹ s⁻¹

B2: Human plasma purified Factor Xa (Molecular Innovations, Inc) (protein)
chain 1: B1 chain 1
chain 2: B1 chain 2
B2 was tested. Which FXa kcat/KM [14] did it give?
Its FXa kcat/KM is 410 M⁻¹ s⁻¹.

And the FXa kcat/KM [15]?
Its FXa kcat/KM is 500 M⁻¹ s⁻¹.

And the FXa kcat/KM [16]?
The FXa kcat/KM was 62 M⁻¹ s⁻¹.

What about the FXa kcat/KM [17] of the same protein?
Its FXa kcat/KM is 460 M⁻¹ s⁻¹.

What about the FXa kcat/KM [18] of the same protein?
Its FXa kcat/KM is 38 M⁻¹ s⁻¹.

What about the FXa kcat/KM [19] of the same protein?
Its FXa kcat/KM is 13 M⁻¹ s⁻¹.

What about the FXa kcat/KM [20] of the same protein?
Its FXa kcat/KM is 24 M⁻¹ s⁻¹.

And the FXa kcat/KM [21]?
The FXa kcat/KM was 170 M⁻¹ s⁻¹.

What about the FXa kcat/KM [22] of the same protein?
Its FXa kcat/KM is 420 M⁻¹ s⁻¹.

What about the FXa kcat/KM [23] of the same protein?
The FXa kcat/KM was 11 M⁻¹ s⁻¹.

What about the FXa kcat/KM [24] of the same protein?
Its FXa kcat/KM is 150 M⁻¹ s⁻¹.

And the FXa kcat/KM [25]?
The FXa kcat/KM was 140 M⁻¹ s⁻¹.

What about the FXa kcat/KM [26] of the same protein?
The FXa kcat/KM was 630 M⁻¹ s⁻¹.

And the FXa kcat/KM [27]?
Its FXa kcat/KM is 990 M⁻¹ s⁻¹.

And the FXa kcat/KM [28]?
The FXa kcat/KM was 590 M⁻¹ s⁻¹.

And the FXa kcat/KM [29]?
Its FXa kcat/KM is 610 M⁻¹ s⁻¹.

And the FXa kcat/KM [30]?
The FXa kcat/KM was 41 M⁻¹ s⁻¹.

What about the FXa kcat/KM [31] of the same protein?
Its FXa kcat/KM is 49 M⁻¹ s⁻¹.

What about the FXa kcat/KM [32] of the same protein?
The FXa kcat/KM was 900 M⁻¹ s⁻¹.

What about the FXa kcat/KM [33] of the same protein?
Its FXa kcat/KM is 140 M⁻¹ s⁻¹.

What about the FXa kcat/KM [34] of the same protein?
The FXa kcat/KM was 86 M⁻¹ s⁻¹.

What about the FXa kcat/KM [35] of the same protein?
Its FXa kcat/KM is 25 M⁻¹ s⁻¹.

And the FXa kcat/KM [36]?
The FXa kcat/KM was 690 M⁻¹ s⁻¹.

What about the FXa kcat/KM [37] of the same protein?
Its FXa kcat/KM is 610 M⁻¹ s⁻¹.

And the FXa kcat/KM [38]?
Its FXa kcat/KM is 310 M⁻¹ s⁻¹.

And the FXa kcat/KM [39]?
The FXa kcat/KM was 25 M⁻¹ s⁻¹.

And the FXa kcat/KM [40]?
Its FXa kcat/KM is 56 M⁻¹ s⁻¹.

What about the FXa kcat/KM [41] of the same protein?
Its FXa kcat/KM is 660 M⁻¹ s⁻¹.
